The values below come from publication PMC5105168, “AKAP95 regulates splicing through scaffolding RNAs and RNA processing factors” (Nature Communications, 2016).

The chains are these.
B1: GST-hnRNP H1 (natural protein, human (cDNA from 293 cells), UniProt P31943 1-449, looked up)
chain: MMLGTEGGEGFVVKVRGLPWSCSADEVQRFFSDCKIQNGAQGIRFIYTREGRPSGEAFVELESEDEVKLALKKDRETMGHRYVEVFKSNNVEMDWVLKHTGPNSPDTANDGFVRLRGLPFGCSKEEIVQFFSGLEIVPNGITLPVDFQGRSTGEAFVQFASQEIAEKALKKHKERIGHRYIEIFKSSRAEVRTHYDPPRKLMAMQRPGPYDRPGAGRGYNSIGRGAGFERMRRGAYGGGYGGYDDYNGYNDGYGFGSDRFGRDLNYCFSGMSDHRYGDGGSTFQSTTGHCVHMRGLPYRATENDIYNFFSPLNPVRVHIEIGPDGRVTGEADVEFATHEDAVAAMSKDKANMQHRYVELFLNSTAGASGGAYEHRYVELFLNSTAGASGGAYGSQMMGGMGLSNQSSYGGPASQQLSGGYGGGYGGQSSMSGYDQVLQENSSDFQSNIA
notes: hnRNP H1, cDNA amplified from 293 cell cDNAs, cloned into pGEX-4T-1; source: E. coli BL21 (DE3), purified on glutathione sepharose 4B without elution
B2: purified Flag-tagged AKAP95 (natural protein)
chain: not shown
notes: AKAP95 (AKAP8) cDNA in pFastBac1; also called F-AKAP95; FLAG-AKAP95; source: sf9 cells (baculovirus), purified (anti-FLAG M2 agarose, FLAG peptide elution)

For assay [1], the target named is B2. The assay can be described thus: pull-down; GST fusions bound to glutathione resin, purified F-AKAP95 proteins in solution, BC200, 0.1% NP40, immunoblot. The settings on record: both partners purified. (A western blot detects proteins with antibodies after separation by electrophoresis.)
Assay [2] addresses T1, purified AKAP95-MBP fusion protein (human, UniProt O43823 1-692).
T1 construct: AKAP95 (AKAP8); source: sf9 cells (baculovirus), purified on amylose resin, kept on the resin
Kind of assay: pull-down; purified MBP or AKAP95-MBP bound to amylose resin, purified F-AKAP95 in solution, BC200, 0.05% NP40, immunoblot. The settings on record: both partners purified.

T1 sequence (O43823 whole entry, the tested form may be a part): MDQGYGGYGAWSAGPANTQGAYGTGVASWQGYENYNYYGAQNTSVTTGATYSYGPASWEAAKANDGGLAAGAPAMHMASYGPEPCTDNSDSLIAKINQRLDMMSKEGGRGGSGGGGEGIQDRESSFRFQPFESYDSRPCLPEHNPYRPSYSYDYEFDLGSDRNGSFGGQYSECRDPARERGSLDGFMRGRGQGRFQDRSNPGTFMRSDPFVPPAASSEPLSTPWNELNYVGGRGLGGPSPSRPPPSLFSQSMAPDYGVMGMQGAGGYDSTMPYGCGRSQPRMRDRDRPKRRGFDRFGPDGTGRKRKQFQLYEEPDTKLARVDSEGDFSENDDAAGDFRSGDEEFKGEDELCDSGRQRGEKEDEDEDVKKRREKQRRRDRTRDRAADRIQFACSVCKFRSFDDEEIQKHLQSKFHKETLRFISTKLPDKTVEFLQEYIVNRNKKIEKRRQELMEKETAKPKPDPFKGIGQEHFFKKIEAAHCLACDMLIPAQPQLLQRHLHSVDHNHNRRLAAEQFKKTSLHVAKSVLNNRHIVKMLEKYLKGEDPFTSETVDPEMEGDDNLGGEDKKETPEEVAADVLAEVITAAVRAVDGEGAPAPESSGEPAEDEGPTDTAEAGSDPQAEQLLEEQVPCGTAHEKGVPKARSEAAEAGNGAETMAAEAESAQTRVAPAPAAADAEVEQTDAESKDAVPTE

Consider B1, for which the binding result in assay [1] is reported as “binds”. With B2, in assay [2], the binding result is “binds”.
